# Assay results taken from patent US10828326B2, “Compositions and methods for treating and preventing venom related poisoning” (priority 2015, dated 2020).
# B1: tPA: tissue type plasminogen activator, 580 IU/μg, Genentech; 100 IU/ml final concentration (protein, UniProt P00750 36-562, looked up)
# Tissue-type plasminogen …: SYQVICRDEKTQMIYQQHQSWLRPVLRSNRVEYCWCNSGRAQCHSVPVKSCSEPRCFNGGTCQQALYFSDFVCQCPEGFAGKCCEIDTRATCYEDQGISYRGTWSTAESGAECTNWNSSALAQKPYSGRRPDAIRLGLGNHNYCRNPDRDSKPWCYVFKAGKYSSEFCSTPACSEGNSDCYFGNGSAYRGTHSLTESGASCLPWNSMILIGKVYTAQNPSAQALGLGKHNYCRNPDGDAKPWCHVLKNRRLTWEYCDVPSCSTCGLRQYSQPQFRIKGGLFADIASHPWQAAIFAKHRRSPGERFLCGGILISSCWILSAAHCFQERFPPHHLTVILGRTYRVVPGEEEQKFEVEKYIVHKEFDDDTYDNDIALLQLKSDSSRCAQESSVVRTVCLPPADLQLPDWTECELSGYGKHEALSPFYSERLKEAHVRLYPSSRCTSQHLLNRTVTDNMLCAGDTRSGGPQANLHDACQGDSGGPLVCLNDGRMTLVGIISWGLGCGQKDVPGVYTKVTNYLDWIRDNMRP
# Tested on: human plasma
# Experiment: Thrombelastography of human plasma exposed to Crotalus atrox venom and/or tPA (Example II)
# Type: biochemical
# Conditions: 0.5 μg/ml venom 5 min and/or 100 IU/ml tPA
# Procedure: Two hundred mg of lyophilized, pooled venom was obtained from four western diamondback rattlesnakes (Crotalus atrox) for experimentation. Venom was reconstituted in calcium-free phosphate buffered saline (PBS, Sigma-Aldrich, Saint Louis, Mo., USA) at a concentration of 20 mg/ml, aliquoted, and then stored at −80° C. until experimentation at the University of Arizona.
# Pooled normal plasma (George King Bio-Medical, Overland Park, Kans., USA) anticoagulated with sodium citrate was rapidly thawed at 37° C. and used for experimentation. To assess the effects of pretreatment of antifibrinolytic plasma proteins with iron, CO, or both, 1% additions of PBS, ferric chloride (FeCl3, 99.9% pure, Sigma-Aldrich, Saint Louis, Mo., USA) in PBS, or CORM-2 (tricarbonyldichlororuthenium (II) dimer, a CO releasing molecule, Sigma-Aldrich, Saint Louis, Mo., USA) dissolved in dimethyl sulfoxide (DMSO, Sigma-Aldrich, Saint Louis, Mo., USA) were used. […] Plasma was exposed to these various agents for at least 5 min prior to incubations with venom.
# The final volume for all subsequently described plasma sample mixtures was 359.4 μl. […] The following elastic modulus-based parameters previously described (see, Nielsen V G, Pretorius E. Blood Coagul Fibrinolysis 2014; 25:695-702) were determined: time to maximum rate of thrombus generation (TMRTG): this is the time interval (min) observed prior to maximum speed of clot growth; maximum rate of thrombus generation (MRTG): this is the maximum velocity of clot growth observed (dynes/cm^2/sec); total thrombus generation (TTG, dynes/cm^2), the final viscoelastic resistance observed after clot formation; time to maximum rate of lysis (TMRL, min), maximum rate of lysis (MRL, dynes/cm^2/sec) and CLT (min). […]
# [1] = vs control conditions (combination: vs all other conditions)
molecule,measurement,setting,value
B1,maximum rate of thrombus generation (MRTG),[1],did not decrease
same,total thrombus generation (TTG),[1],significantly decreased
same,time to maximum rate of thrombus generation (TMRTG),vs control conditions (combination: vs any other condition),did not prolong
